Where no end group is shown, it is not given here.
T1: human fibrinogen (human, UniProt P02671 20-629; P02675 31-491; P02679 27-437, limits assumed)
T1 construct: also called purified human fibrinogen
T1 sequence (looked up) 1: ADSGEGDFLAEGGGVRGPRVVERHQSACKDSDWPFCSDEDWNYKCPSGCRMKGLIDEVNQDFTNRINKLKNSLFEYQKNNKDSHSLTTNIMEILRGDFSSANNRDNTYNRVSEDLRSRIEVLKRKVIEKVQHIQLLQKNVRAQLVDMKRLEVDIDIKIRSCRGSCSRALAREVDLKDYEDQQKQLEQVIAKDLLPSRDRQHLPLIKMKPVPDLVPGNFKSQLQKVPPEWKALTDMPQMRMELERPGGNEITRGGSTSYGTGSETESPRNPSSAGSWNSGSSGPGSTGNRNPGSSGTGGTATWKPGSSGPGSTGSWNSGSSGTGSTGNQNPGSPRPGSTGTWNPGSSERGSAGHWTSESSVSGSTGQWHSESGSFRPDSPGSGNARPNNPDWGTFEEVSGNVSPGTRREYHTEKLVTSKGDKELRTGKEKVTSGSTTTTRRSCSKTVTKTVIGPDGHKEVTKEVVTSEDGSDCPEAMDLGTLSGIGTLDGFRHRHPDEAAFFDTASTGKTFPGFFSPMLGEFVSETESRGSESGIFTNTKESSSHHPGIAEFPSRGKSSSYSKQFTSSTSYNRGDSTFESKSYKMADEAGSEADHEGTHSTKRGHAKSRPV
T1 sequence (looked up) 2: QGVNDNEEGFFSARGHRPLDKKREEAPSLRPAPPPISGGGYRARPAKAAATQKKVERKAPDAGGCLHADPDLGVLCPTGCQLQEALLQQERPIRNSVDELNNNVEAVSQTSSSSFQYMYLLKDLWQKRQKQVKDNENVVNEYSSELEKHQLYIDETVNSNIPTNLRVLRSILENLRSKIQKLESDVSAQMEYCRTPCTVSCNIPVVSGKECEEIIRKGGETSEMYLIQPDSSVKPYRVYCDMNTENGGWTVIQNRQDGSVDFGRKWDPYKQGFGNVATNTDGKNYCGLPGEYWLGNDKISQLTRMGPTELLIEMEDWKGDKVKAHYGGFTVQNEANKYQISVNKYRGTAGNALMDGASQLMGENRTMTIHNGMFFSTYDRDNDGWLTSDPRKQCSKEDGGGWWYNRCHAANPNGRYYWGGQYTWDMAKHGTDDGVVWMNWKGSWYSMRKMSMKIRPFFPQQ
T1 sequence (looked up) 3: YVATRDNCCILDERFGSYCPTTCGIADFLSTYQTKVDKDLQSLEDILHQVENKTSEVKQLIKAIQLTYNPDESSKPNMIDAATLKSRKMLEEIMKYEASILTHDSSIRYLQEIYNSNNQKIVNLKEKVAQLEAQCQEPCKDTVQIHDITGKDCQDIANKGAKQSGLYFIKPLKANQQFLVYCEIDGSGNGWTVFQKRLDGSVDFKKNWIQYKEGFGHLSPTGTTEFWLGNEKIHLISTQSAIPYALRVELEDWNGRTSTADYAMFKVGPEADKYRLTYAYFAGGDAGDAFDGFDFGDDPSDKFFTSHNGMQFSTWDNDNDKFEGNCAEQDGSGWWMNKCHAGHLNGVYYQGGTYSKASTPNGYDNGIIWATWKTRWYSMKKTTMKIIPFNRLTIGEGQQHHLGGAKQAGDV


Experiments:
[1] = molecular target: human fibrinogen (human) (UniProt P02671); experiment: cell-based or functional assay
[2] = molecular target: T1, human fibrinogen; experiment: flow cytometry; peptide-albumin microparticles incubated with fluorescent fibrinogen

Row | Clotting activity (time to clot formation, Sigma Amelung KC4 coagulometer; 30 µL sample at 0.5 mg/ml added to 100 µL purified human fibrinogen at 3 mg/ml) [1] [s] | binding result [2] | Molecule
1 | < 6 |  | PeproStat (GPRPG-PEG12-maleimide conjugated to thiolated human serum albumin) (from UniProt P02768 25-609)
2 |  | binds | GPRPG (also: conjugated to albumin microparticles, linker and chemistry not given here, Surrogate of PeproStat for the flow cytometry test; also called the particles; not shown: The albumin microparticle carrier) [GPRPG peptide conjugated to albumin microparticles]

— patent US20150071985A1 (HAEMOSTATIX, published 2015)
